B1: Ribonuclease, P00648 (parent)
chain: MMKMEGIALKKRLSWISVCLLVLVSAAGMLFSTAAKTETSSHKAHTEAQVINTFDGVADYLQTYHKLPDNYITKSEAQALGWVASKGNLADVAPGKSIGGDIFSNREGKLPGKSGRTWREADINYTSGFRNSDRILYSSDWLIYKTTDHYQTFTKIR

Variants of: B1
Conditions: Bacillus amyloliquefaciens; pH 6.3; 25 °C; Urea; Fluorescence; MES 1.00 M; NaCl 613 mM; reversible: yes; structure 1BNI; whole UniProt chain shown

| Variant | ddG of mutation (higher = less stable) [kcal/mol] | denaturant midpoint (higher = more stable) [M] |
| --- | --- | --- |
| MMKMEGIALKKRLSWISVCLLVLVSAAGMLFSTAAKTETSSHKAHTEAQVINTFAGVADYLQTYHKLPDNYITKSEAQALGWVASKGNLADVAPGKSIGGDIFSNREGKLPGKSGRTWREADINYTSGFRNSDRILYSSDWLIYKTTDHYQTFTKIR [D55A] | 0.99 | 4.12 |
| MMKMEGIALKKRLSWISVCLLVLVSAAGMLFSTAAKTETSSHKAHTEAQVINTFAGVAAYLQTYHKLPDNYITKSEAQALGWVASKGNLADVAPGKSIGGDIFSNREGKLPGKSGRTWREADINYTSGFRNSDRILYSSDWLIYKTTDHYQTFTKIR [D55A D59A] | 0.89 | 4.16 |
| MMKMEGIALKKRLSWISVCLLVLVSAAGMLFSTAAKTETSSHKAHTEAQVINTFAGVAAYLQTYHKLPDNYITKSEAQALGWVASKGNLADVAPGKSIGGDIFSNREGKLPGKSGRTWREADINYTSGFRNSDRILYSSDWLIYKTTDHYQTFTKIA [D55A D59A R157A] | -0.11 | 4.63 |
| MMKMEGIALKKRLSWISVCLLVLVSAAGMLFSTAAKTETSSHKAHTEAQVINTFAGVADYLQTYHKLPDNYITKSEAQALGWVASKGNLADVAPGKSIGGDIFSNREGKLPGKSGRTWREADINYTSGFRNSDRILYSSDWLIYKTTDHYQTFTKIA [D55A R157A] | 0.47 | 4.36 |
| MMKMEGIALKKRLSWISVCLLVLVSAAGMLFSTAAKTETSSHKAHTEAQVINTFDGVAAYLQTYHKLPDNYITKSEAQALGWVASKGNLADVAPGKSIGGDIFSNREGKLPGKSGRTWREADINYTSGFRNSDRILYSSDWLIYKTTDHYQTFTKIR [D59A] | 0.34 | 4.42 |
| MMKMEGIALKKRLSWISVCLLVLVSAAGMLFSTAAKTETSSHKAHTEAQVINTFDGVADYLQTYHKLPDNYITKSEAQALGWVASKGNLADVAPGKSIGGDIFSNREGKLPGKSGRTWREADINYTSGFRNSDRILYSSDWLIYKTTDHYQTFTKIA [R157A] | 0.46 | 4.37 |

— FireProtDB (doi:10.1016/0022-2836(92)90557-z)
